# Target: SARS-CoV-2 XBB.1 S2P spike trimer (SARS-CoV-2)
# Assay: SPR; spike captured through its C-terminal His-tag on a CM5 chip with anti-His antibodies (His Capture Kit); serially diluted human ACE2-Fc flowed over; HBS-EP+ buffer; 25°C; Biacore T200, single-cycle mode; 1:1 binding model
# Sequence of human ACE2-Fc protein (from pcDNA3-sACE2-WT(732)-IgG1) (Q9BYF1 18-732): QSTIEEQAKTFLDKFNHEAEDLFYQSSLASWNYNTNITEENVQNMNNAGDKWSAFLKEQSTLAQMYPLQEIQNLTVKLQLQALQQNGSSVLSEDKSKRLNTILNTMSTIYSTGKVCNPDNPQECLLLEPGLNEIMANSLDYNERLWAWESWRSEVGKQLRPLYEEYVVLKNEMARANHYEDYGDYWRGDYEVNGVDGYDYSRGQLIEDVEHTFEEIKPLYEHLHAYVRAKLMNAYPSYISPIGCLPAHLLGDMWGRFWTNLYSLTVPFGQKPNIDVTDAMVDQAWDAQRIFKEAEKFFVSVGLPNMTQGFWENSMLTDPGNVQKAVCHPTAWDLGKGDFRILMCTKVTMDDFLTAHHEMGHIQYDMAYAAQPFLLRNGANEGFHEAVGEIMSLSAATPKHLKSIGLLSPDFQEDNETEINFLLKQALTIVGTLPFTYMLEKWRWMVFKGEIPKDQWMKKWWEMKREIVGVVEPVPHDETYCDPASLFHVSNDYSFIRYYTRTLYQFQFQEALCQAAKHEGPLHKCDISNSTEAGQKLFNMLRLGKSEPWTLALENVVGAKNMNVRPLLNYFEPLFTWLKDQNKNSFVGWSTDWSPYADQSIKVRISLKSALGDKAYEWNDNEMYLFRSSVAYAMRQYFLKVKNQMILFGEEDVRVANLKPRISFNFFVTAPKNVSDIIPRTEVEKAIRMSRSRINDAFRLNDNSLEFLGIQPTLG
substance,measurement,value
human ACE2-Fc protein (from pcDNA3-sACE2-WT(732)-IgG1) (from UniProt Q9BYF1 18-732) (Fc fusion),Kd,2.06 nM

# From publication PMC9747694
